Data from paper PMC2818375.

Target: M2 muscarinic receptor fused to CFP (M2R-CFP) (UniProt P08172)
Experiment: FRET or BRET

UniProt P08172, sequence (P08172 whole entry, the tested form may be a part): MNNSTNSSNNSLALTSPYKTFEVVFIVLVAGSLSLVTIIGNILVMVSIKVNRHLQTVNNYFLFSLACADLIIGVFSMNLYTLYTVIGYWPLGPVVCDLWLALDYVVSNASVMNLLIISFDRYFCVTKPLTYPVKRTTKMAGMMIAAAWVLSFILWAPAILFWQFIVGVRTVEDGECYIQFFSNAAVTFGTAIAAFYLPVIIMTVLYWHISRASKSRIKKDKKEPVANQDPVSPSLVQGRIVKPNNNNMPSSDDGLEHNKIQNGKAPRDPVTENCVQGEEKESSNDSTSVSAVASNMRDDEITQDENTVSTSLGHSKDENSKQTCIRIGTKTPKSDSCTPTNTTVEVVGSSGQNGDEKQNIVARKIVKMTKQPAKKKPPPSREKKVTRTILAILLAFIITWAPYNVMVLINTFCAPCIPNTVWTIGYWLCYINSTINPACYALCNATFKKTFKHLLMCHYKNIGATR

Substance “GBR1R2-YFP chimera (N-terminal and transmembrane domains of GBR1, C-terminal domain of GBR2) (receptor)” has a %FRET of 6 %FRET.
